Test results from PMC2699393 (EMBO Reports, 2009).

Molecular target: T1, MBP–TIP150 (maltose-binding protein–tracking protein 150) (human, UniProt Q5JR59 1-1369)
T1 sequence (looked up): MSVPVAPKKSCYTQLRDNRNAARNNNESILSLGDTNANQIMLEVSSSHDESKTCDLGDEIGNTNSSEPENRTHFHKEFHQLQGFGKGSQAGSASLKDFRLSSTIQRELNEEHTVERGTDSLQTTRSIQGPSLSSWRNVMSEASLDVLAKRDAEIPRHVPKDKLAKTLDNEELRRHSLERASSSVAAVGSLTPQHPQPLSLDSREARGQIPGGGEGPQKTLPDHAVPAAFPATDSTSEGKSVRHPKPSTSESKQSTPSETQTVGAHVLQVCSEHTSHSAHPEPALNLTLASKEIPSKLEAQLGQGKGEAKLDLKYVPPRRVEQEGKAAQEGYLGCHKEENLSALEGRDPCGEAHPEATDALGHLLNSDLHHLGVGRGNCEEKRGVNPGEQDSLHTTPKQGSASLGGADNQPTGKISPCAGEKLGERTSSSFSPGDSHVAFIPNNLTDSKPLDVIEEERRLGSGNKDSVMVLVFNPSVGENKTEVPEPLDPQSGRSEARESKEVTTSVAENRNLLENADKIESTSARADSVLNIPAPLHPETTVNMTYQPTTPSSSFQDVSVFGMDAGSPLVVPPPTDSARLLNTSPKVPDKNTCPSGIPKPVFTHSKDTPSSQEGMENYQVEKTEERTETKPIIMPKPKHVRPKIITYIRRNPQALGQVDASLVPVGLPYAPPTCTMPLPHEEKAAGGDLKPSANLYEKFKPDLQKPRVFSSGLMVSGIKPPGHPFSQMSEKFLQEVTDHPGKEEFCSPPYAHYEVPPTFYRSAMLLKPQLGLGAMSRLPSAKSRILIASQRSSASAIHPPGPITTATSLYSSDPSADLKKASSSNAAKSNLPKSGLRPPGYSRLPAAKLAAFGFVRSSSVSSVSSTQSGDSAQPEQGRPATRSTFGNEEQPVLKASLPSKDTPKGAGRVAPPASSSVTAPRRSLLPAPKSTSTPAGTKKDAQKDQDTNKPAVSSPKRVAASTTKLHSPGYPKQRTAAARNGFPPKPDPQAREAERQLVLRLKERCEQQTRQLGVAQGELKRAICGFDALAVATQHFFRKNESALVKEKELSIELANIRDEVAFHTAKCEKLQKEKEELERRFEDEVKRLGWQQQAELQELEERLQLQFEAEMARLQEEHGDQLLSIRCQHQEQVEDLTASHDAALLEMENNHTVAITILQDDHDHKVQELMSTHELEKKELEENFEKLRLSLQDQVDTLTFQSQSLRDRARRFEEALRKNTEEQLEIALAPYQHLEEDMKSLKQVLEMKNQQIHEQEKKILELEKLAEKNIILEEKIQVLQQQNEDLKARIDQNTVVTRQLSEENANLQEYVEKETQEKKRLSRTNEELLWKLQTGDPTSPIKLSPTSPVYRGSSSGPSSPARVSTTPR
Assay: pull-down

B1: GST–EB1 (glutathione-S-transferase–end-binding protein 1) (natural protein, human, UniProt Q15691 1-268, looked up)
chain: MAVNVYSTSVTSDNLSRHDMLAWINESLQLNLTKIEQLCSGAAYCQFMDMLFPGSIALKKVKFQAKLEHEYIQNFKILQAGFKRMGVDKIIPVDKLVKGKFQDNFEFVQWFKKFFDANYDGKDYDPVAARQGQETAVAPSLVAPALNKPKKPLTSSSAAPQRPISTQRTAAAPKAGPGVVRKNPGVGNGDDEAAELMQQVNVLKLTVEDLEKERDFYFGKLRNIELICQENEGENDPVLQRIVDILYATDEGFVIPDEGGPQEEQEEY
  binding result: binds
